# Reference: patent US7723122
# Molecular target: protein A (UniProt P38507)
# Experiment: SPR, BIACORE 3000, protein A immobilised on CM5 chip, 4.4 ug/ml BSA in flow at 20 ul/min; nonlinear regression with Rmax fixed at 880 RU
substance,measurement,value
"BSA (molecular weight: 66,200) (from UniProt P02769 25-607) (other; other documents disagree on this pair)",koff,0.11 s⁻¹
same,kon,880000 M⁻¹ s⁻¹
